The values below come from patent US20220251162A1.

Where no end group is shown, it is not given here.

The target in this experiment is human PAC1 receptor (human), P41586. The experiment is described as follows: cell-based or functional assay.
Chain of human PAC1 receptor (human), P41586 (P41586 21-468): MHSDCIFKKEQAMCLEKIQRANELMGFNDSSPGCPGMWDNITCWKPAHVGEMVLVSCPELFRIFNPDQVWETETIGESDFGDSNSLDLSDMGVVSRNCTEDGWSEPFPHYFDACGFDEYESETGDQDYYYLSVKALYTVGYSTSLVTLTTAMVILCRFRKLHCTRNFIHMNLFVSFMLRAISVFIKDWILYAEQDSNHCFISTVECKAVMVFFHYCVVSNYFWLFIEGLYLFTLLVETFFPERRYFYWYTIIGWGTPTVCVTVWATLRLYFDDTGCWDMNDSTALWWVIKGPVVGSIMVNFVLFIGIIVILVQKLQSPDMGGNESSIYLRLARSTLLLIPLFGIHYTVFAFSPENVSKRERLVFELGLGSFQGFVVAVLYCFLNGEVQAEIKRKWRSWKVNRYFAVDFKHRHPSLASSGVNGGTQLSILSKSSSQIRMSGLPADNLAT

B1: MAXCAP 1 (peptide)
peptide: HSDGIFTDSYSSRYRKQMAVKKYLAAVLPGNSVFKECMKQKKKEFKAGK
modifications: ends and bridges not checked
For the molecule B1, the cAMP (fmol) at 1 nM was 3170 fmol, the cAMP (fmol) at 10 nM was 6220 fmol and the cAMP (fmol) at 100 nM is 4710 fmol.

B2: MAXCAP 4 (peptide)
peptide: HSDGIFAPGNSVFKECMKQKKKEFKAGK
modifications: ends and bridges not checked
In turn, B2 registered a cAMP (fmol) at 10 nM of 4060 fmol, a cAMP (fmol) at 100 nM of 6400 fmol, a cAMP (fmol) at 1 µM of 6400 fmol and a cAMP (fmol) at 10 µM of 5780 fmol.
